# Assay results published in patent US9371393B2, “Class I anti-CEA antibodies and uses thereof” (Immunomedics, Inc., priority 2009, dated 2016).
# [ ]: non-standard residue; d: D form. The star is where a group is joined. HSG = histaminyl-succinyl-glycine, O=C(CCC(=O)NCC(=O)*)NCCc1c[nH]cn1; DTPA = O=C(O)CN(CCN(CC(=O)O)CC(=O)O)CCN(CC(=O)O)CC(=O)*
# B1: hMN-14 Fab′: Fab′ of MN-14 in its humanized form, hMN-14 or labetuzumab (antibody, chains of the INN, looked up, V domains shown)
# VH: EVQLVESGGGVVQPGRSLRLSCSASGFDFTTYWMSWVRQAPGKGLEWIGEIHPDSSTINYAPSLKDRFTISRDNAKNTLFLQMDSLRPEDTGVYFCASLYFGFPWFAYWGQGTPVTVSS
# VL: DIQLTQSPSSLSASVGDRVTITCKASQDVGTSVAWYQQKPGKAPKLLIYWTSTRHTGVPSRFSGSGSGTDFTFTISSLQPEDIATYYCQQYSLYRSFGQGTKVEIK
# modifications: Fab′
# notes: Fab′ of MN-14 in its humanized form, hMN-14 or labetuzumab
# Key:
# hMN-14×679 = assay: Antibody binding of 18F-labeled IMP 272 by size exclusion HPLC, hMN-14×679
# Protocol: (§1) The peptide (16 μL 2 mM IMP 272, 48 μg) was labeled with ^18F and analyzed for antibody binding by size exclusion HPLC.
# [1] = Stability of purified 18F-labeled IMP 272 in water; assay type: physicochemical; conditions: 25° C., 40 min
# Protocol: The labeled peptide was purified by applying the labeled peptide solution onto a 1 cc (30 mg) WATERS® HLB column (Part #186001879) and washing with 300 μL water to remove unbound F-18. The peptide was eluted by washing the column with 2×100 μL 1:1 EtOH/H2O. The purified peptide was incubated in water at 25° C. and analyzed by reverse phase HPLC (not shown). […] After 40 min incubation in water about 17% of the ^18F was released from the peptide, while 83% was retained (not shown).
# hMN-14×734 = assay: Antibody binding of 18F-labeled IMP 272 by size exclusion HPLC, hMN-14×734
# Protocol: as §1
# [2] = Stability of 18F-labeled IMP 272 in PBS; assay type: physicochemical; conditions: room temperature, 150 μL PBS, ~1 hr
# Protocol: F-18 Labeling of IMP 272—A 3 μL aliquot of the aluminum stock solution was placed in a REACTI-VIAL™ and mixed with 50 μL ^18F (as received) and 3 μL of the IMP 272 solution. The solution was heated in a heating block at 110° C. for 15 min and analyzed by reverse phase HPLC. […] An additional 10 μL of the IMP 272 solution was added to the reaction and it was heated again and analyzed by reverse phase HPLC (not shown). […] The remainder of the peptide solution was incubated at room temperature with 150 μL PBS for ˜1 hr and then examined by reverse phase HPLC.
# RIIα dimers (DDD) = RIIα dimers (DDD) (Homo sapiens, UniProt P13861); conditions: Alto et al. 2003; read-out: affinity / binding constant for RIIα dimers (DDD); cited from earlier work
# RIIα dimers (DDD), sequence (P13861 whole entry): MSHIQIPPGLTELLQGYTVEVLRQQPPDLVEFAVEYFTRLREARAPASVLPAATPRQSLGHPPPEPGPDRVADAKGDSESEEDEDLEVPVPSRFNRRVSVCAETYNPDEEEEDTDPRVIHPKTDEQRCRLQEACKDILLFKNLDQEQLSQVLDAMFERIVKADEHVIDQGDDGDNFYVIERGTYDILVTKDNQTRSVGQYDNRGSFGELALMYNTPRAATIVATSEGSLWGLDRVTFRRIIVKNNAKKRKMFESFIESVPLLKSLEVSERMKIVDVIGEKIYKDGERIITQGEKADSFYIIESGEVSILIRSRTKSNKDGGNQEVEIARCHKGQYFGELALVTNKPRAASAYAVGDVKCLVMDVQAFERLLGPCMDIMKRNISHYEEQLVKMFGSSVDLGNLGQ
# [3] = system: GW-39 human colonic carcinoma; assay: GW-39 intrapulmonary micrometastasis model (GW-39iv), survival; assay type: in vivo, nude mice; conditions: cells pretreated with Fab′ 10 μg/mol, 100 μg i.v. 1 day after implantation; untreated 42 days
# Protocol: FIG. 7 illustrates an exemplary in vivo micrometastasis study. Top, immunohistochemistry of GW-39 tumor sections stained with a nonspecific antibody (left), MN-14 anti-CEACAM5 (middle), and MN-15 anti-CEACAM6 (right) and photographed at 100×. Bottom, survival of nude mice implanted with 30 μL of a 10% suspension of GW-39 human colonic cancer cells. Mice were implanted with cells that were […] for 30 minutes with MN-3-, MN-15-, or hMN-14-Fab′ (10 μg/mol). Mice also received a single 100 μg dose of the same Fab′ 1 day after cell implantation.
# In vivo therapy studies—Female athymic nude mice (6 to 8 weeks old) were purchased from TACONIC® (Germantown, N.Y.). Therapy studies were done using our CEACAM5+/CEACAM6+GW-39 intrapulmonary micrometastasis model, GW-39iv (Sharkey et al., J Natl Cancer Inst 1991, 83:627-32; Blumenthal et al., Cancer Res 1992, 52:6036-44). The GW-39 human colonic carcinoma has been maintained as a serially transplanted signet-ring cell cancer line since 1966 (Goldenberg et al., Transplantation 1966, 4:760-4). […] Body weight was monitored weekly and animal survival recorded. Results were analyzed by the Kaplan-Meier estimated survival curves, and significance was determined with the log-rank comparison of survival curves. Median survival time for each treatment group also was determined. […]
# tumor cell invasion = assay: Collagen-based invasion assay, cell line panel; design: species or system human
# Protocol: Collagen-based invasion assay—The assay was done using CHEMICON® Kit (#ECM551, MILLIPORE®, Billerica, Mass.). Tumor cells at 80% confluence and were serum-starved for 18 to 24 hours before the assay was used. Cells were harvested with 5 mol of 2 mmol/L EDTA/PBS per 100-mm dish and incubated at 37° C. for 5 to 15 minutes. Cells were collected into 10 to 20 mol of quenching medium (serum-free DMEM containing 5% BSA) to inactivate trypsin/EDTA from the harvesting buffer. Cells were pelleted, resuspended in quenching medium (1×10^6 cells/mol), and appropriate antibody Fabs were added to individual cell aliquots. Cell invasion potential was determined as follows. Baseline invasion and invasion in the presence of a chemoattractant (10% FBS) were measured after a 72-hour incubation period at 37° C. in a 5% CO2 incubator. The bottom side of the collagen-coated polycarbonate membrane insert of the invasion chamber was placed in 400 μL of cell stain for 20 minutes at room temperature and washed. The dye was extracted and transferred into a 96-well microtiter plate for colorimetric measurements (A560 nm).
molecule,measurement,setting,value
DTPA-Gln-Ala-Lys(HSG)-D-Tyr-Lys(HSG)-NH2 ({DTPA}-QAK(HSG)[dY]K(HSG)-NH2; SMILES C[C@H](NC(=O)[C@H](CCC(N)=O)NC(=O)CN(CCN(CCN(CC(=O)O)CC(=O)O)CC(=O)O)CC(=O)O)C(=O)N[C@@H](CCCCNC(=O)CNC(=O)CCC(=O)NCCc1c[nH]cn1)C(=O)N[C@H](Cc1ccc(O)cc1)C(=O)N[C@@H](CCCCNC(=O)CNC(=O)CCC(=O)NCCc1c[nH]cn1)C(N)=O) [^18F-labeled IMP 272],binding to hMN-14×679,hMN-14×679,bound
same,^18F released from the peptide,[1],about 17%
same,^18F retained,[1],83%
same,binding to irrelevant bispecific antibody hMN-14×734,hMN-14×734,did not bind
same,^18F still attached to the peptide,[2],42%
same,^18F unbound,[2],58%
QIEYLAKQIVDNAIQQA [AKAP-IS],Kd,RIIα dimers (DDD),0.4 nM
B1,median survival time,[3],49 days
same,effect on tumor cell invasion,tumor cell invasion,had no effect on tumor cell invasion in most cell lines
